84 variants from the RNAGym collection of RNA variant scans (doi:10.1093/molbev/msab373) can be followed below.

B1: Azoarcus group I ribozyme (parent)
chain: GUGCCUUGCGCCGGGAAACCACGCAAGGGAUGGUGUCAAAUUCGGCGAAACCUAAGCGCCCGCCCGGGCGUAUGGCAACGCCGAGCCAAGCUUCGGCGCCUGCGCCGAUGAAGGUGUAGAGACUAGACGGCACCCACCUAAGGCAAACGCUAUGGUGAAGGCAUAGUCCAGGGAGUGGCGAAAGUCACACAAACCGG

The variants in the data set derive from B1. In words: reverse-splicing fitness (ratio to wild type); higher = more active; in vitro selection; Mg2+ level not given. In outline: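 An in vitro group I ribozyme library with randomized positions was T7-transcribed and gel-purified. In triplicate, 10 pmol RNA in EPPS pH 7.5 was reacted with 50 pmoles of a 30-nt RNA substrate for 1 h at 37 °C across several added MgCl2 levels (1–48 mM), then stopped with EDTA. Products were reverse transcribed from a substrate-complementary primer, PCR-amplified and sequenced (HiSeq 4000). Fitness is a variant's read proportion after selection over that before, normalised to wild type.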
Regarding C82U A111G A120C C150U C169G U176G, the reverse-splicing fitness came out at 0.00447.

In the case of C82U A111G A120C C150U C169G U176A, the reverse-splicing fitness was found to be 0.0205.

With C82U A111G A120C C150U C169G U176C, the reverse-splicing fitness amounted to 0.0156.

Take C82U A111G A120C C150A C169G U176A: the reverse-splicing fitness was found to be 0.0237.

Consider C82U A111G A120C C150A C169G U176G, for which the reverse-splicing fitness was 0.00458.

For C82U A111G A120C C150A C169G U176C, the reverse-splicing fitness amounted to 0.0191.

In the case of C82U A111G A120G A145C C169G, the reverse-splicing fitness worked out at 0.0123.

Take C82U A111G A120G A145C C169A: the reverse-splicing fitness is 0.00792.

In the case of C82U A111G A120G A145C C169U, the reverse-splicing fitness stood at 0.00954.

C82U A111G A120C C150A U176A: the reverse-splicing fitness came out at 0.0127.

C82U A111G A120C C150A U176C: the reverse-splicing fitness turned out to be 0.0187.

In the case of C82U A111G A120C C150A U176G, the reverse-splicing fitness amounted to 0.00554.

Consider C82U A111G A120C C150U, for which the reverse-splicing fitness came to 0.0325.

Turning to C82U A111G A120C C150G, the reverse-splicing fitness stood at 0.00825.

Turning to C82U A111G A120C C150A, the reverse-splicing fitness was 0.0113.

Regarding C82U A111G A120G A145U C150A U176A, the reverse-splicing fitness is 0.00974.

As for C82U A111G A120G A145U C150A U176G, the reverse-splicing fitness is 0.00406.

Turning to C82U A111G A120G A145U C150A U176C, the reverse-splicing fitness stood at 0.013.

As for C82U A111G A120C C150U U176A, the reverse-splicing fitness turned out to be 0.0148.

For the variant C82U A111G A120C C150U U176C, the reverse-splicing fitness worked out at 0.0218.

Regarding C82U A111G A120C C150U U176G, the reverse-splicing fitness was found to be 0.00651.

For the variant C82U A111G A120G A145C C150G C169A, the reverse-splicing fitness turned out to be 0.00854.

Regarding C82U A111G A120G A145C C150G C169G, the reverse-splicing fitness came to 0.00713.

With C82U A111G A120G A145C C150G C169U, the reverse-splicing fitness stood at 0.00741.

As to C82U A111G A120C C150A C169U U176G, the reverse-splicing fitness came out at 0.00561.

On to C82U A111G A120C C150A C169U U176C, for which the reverse-splicing fitness turned out to be 0.0177.

Turning to C82U A111G A120C C150A C169U U176A, the reverse-splicing fitness stood at 0.017.

Take C82U A111G A120C A145G C169G U176C: the reverse-splicing fitness was 0.0179.

C82U A111G A120C A145G C169G U176A: the reverse-splicing fitness amounted to 0.0181.

C82U A111G A120C A145G C169G U176G: the reverse-splicing fitness turned out to be 0.00407.

Take C82U A111G A120C U176C: the reverse-splicing fitness is 0.0288.

Take C82U A111G A120C U176G: the reverse-splicing fitness is 0.00542.

In the case of C82U A111G A120C U176A, the reverse-splicing fitness is 0.0204.

Take C82U A111G A120G A145U C150G C169A U176G: the reverse-splicing fitness came out at 0.00391.

Regarding C82U A111G A120G A145U C150G C169A U176C, the reverse-splicing fitness amounted to 0.00917.

C82U A111G A120G A145U C150G C169A U176A: the reverse-splicing fitness was 0.00905.

Consider C82U A111G A120G A145G C150A C169G U176G, for which the reverse-splicing fitness was 0.00482.

Turning to C82U A111G A120G A145G C150A C169G U176C, the reverse-splicing fitness came out at 0.0228.

On to C82U A111G A120G A145G C150A C169G U176A, for which the reverse-splicing fitness was found to be 0.0174.

As for C82U A111G A120C A145U C169A U176A, the reverse-splicing fitness worked out at 0.00844.

For the variant C82U A111G A120C A145U C169A U176G, the reverse-splicing fitness amounted to 0.00329.

Regarding C82U A111G A120C A145U C169A U176C, the reverse-splicing fitness amounted to 0.00627.

Regarding C82U A111G A120G A145U C150U C169G U176A, the reverse-splicing fitness was determined as 0.0116.

Turning to C82U A111G A120G A145U C150U C169G U176G, the reverse-splicing fitness was 0.00409.

Turning to C82U A111G A120G A145U C150U C169G U176C, the reverse-splicing fitness is 0.0132.

As for C82U A111G A120C A145G C150U U176C, the reverse-splicing fitness worked out at 0.0274.

With C82U A111G A120C A145G C150U U176G, the reverse-splicing fitness was 0.00625.

For C82U A111G A120C A145G C150U U176A, the reverse-splicing fitness amounted to 0.0138.

C82U A111G A120C C169A U176C: the reverse-splicing fitness turned out to be 0.0132.

On to C82U A111G A120C C169A U176G, for which the reverse-splicing fitness came to 0.00425.

In the case of C82U A111G A120C C169A U176A, the reverse-splicing fitness stood at 0.014.

With C82U A111G A120G A145U C169A, the reverse-splicing fitness was 0.00841.

Consider C82U A111G A120G A145U C169G, for which the reverse-splicing fitness turned out to be 0.0113.

On to C82U A111G A120G A145U C150A C169G U176C, for which the reverse-splicing fitness came to 0.0137.

Regarding C82U A111G A120G A145U C150A C169G U176G, the reverse-splicing fitness is 0.00398.

Consider C82U A111G A120G A145U C150A C169G U176A, for which the reverse-splicing fitness was 0.0124.

For the variant C82U A111G A120C A145U C150U C169U U176G, the reverse-splicing fitness worked out at 0.00402.

On to C82U A111G A120C A145U C150U C169U U176C, for which the reverse-splicing fitness came to 0.0124.

As for C82U A111G A120C A145U C150U C169U U176A, the reverse-splicing fitness came to 0.0157.

For the variant C82U A111G A120G A145C C150A U176G, the reverse-splicing fitness came to 0.00354.

Take C82U A111G A120G A145C C150A U176C: the reverse-splicing fitness was 0.00818.

In the case of C82U A111G A120G A145C C150A U176A, the reverse-splicing fitness was 0.00929.

C82U A111G A120C A145U C150U C169U: the reverse-splicing fitness worked out at 0.00989.

On to C82U A111G A120C A145U C150U C169A, for which the reverse-splicing fitness is 0.00793.

Consider C82U A111G A120C A145U C150U C169G, for which the reverse-splicing fitness came to 0.008.

Regarding C82U A111G A120G A145G C169A, the reverse-splicing fitness stood at 0.0117.

Regarding C82U A111G A120G A145G C169U, the reverse-splicing fitness is 0.011.

Regarding C82U A111G A120G A145G C169G, the reverse-splicing fitness is 0.0129.

Regarding C82U A111G A120C C150A C169A U176C, the reverse-splicing fitness stood at 0.0156.

With C82U A111G A120C C150A C169A U176A, the reverse-splicing fitness worked out at 0.0215.

With C82U A111G A120C C150A C169A U176G, the reverse-splicing fitness is 0.0042.

Turning to C82U A111G A120C C150G C169G, the reverse-splicing fitness turned out to be 0.00713.

In the case of C82U A111G A120C C150G C169A, the reverse-splicing fitness was determined as 0.0083.

Regarding C82U A111G A120C C150G C169U, the reverse-splicing fitness is 0.00828.

On to C82U A111G A120G A145U C150G C169U U176A, for which the reverse-splicing fitness was 0.0129.

For C82U A111G A120G A145U C150G C169U U176C, the reverse-splicing fitness was 0.0117.

Take C82U A111G A120G A145U C150G C169U U176G: the reverse-splicing fitness turned out to be 0.0048.

As for C82U A111G A120C A145G C150U C169U, the reverse-splicing fitness is 0.0127.

For C82U A111G A120G A145U C150A C169A U176C, the reverse-splicing fitness is 0.00962.

Turning to C82U A111G A120G A145U C150A C169A U176A, the reverse-splicing fitness worked out at 0.013.

In the case of C82U A111G A120G A145U C150A C169A U176G, the reverse-splicing fitness is 0.00458.

With C82U A111G A120G A145C C150U C169A U176G, the reverse-splicing fitness came to 0.00395.

As for C82U A111G A120G A145C C150U C169A U176C, the reverse-splicing fitness was 0.00548.

C82U A111G A120G A145C C150U C169A U176A: the reverse-splicing fitness is 0.0104.
